Read-outs that look alike come from different tables or passages of the source. Each block holds one binder with its values, some of them ahead of it. Where no end group is shown, it is not given here. [ ]: non-standard residue; d: D form. hLeu = CC(C)CC[C@H](N)C(=O)O; βAla = NCCC(=O)O
Assays:
Test in all cases: radioligand binding, displacement of [125I]EPO
[1] = biological target: T1, erythropoietin receptor, human recombinant (NSO cells) (human) (UniProt P19235)
T1 sequence (looked up): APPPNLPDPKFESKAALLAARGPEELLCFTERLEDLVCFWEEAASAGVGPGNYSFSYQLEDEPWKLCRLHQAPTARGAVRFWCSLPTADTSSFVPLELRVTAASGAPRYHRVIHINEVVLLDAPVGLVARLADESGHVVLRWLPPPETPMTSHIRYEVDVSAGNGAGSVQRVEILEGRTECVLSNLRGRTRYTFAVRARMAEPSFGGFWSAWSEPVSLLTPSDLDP

[2] = biological target: T2, erythropoietin receptor, human recombinant (NSO cells) (human, UniProt P19235 25-250, limits assumed)
T2 construct: also called EPOR; EPO receptor
T2 sequence (looked up): T1 sequence (looked up)

[3] = biological target: T2, erythropoietin receptor, human …; remark: listed apart in the source
[4] = biological target: T2, erythropoietin receptor, human …; remark: listed apart in the source

Ki [1]: 44 nM
Binder: Ac-NYLRMGWVRP (peptide, part only; not given: Bridge, linker and tail moieties, not shown: small tags and cut ends, also: two linked chains, linker and second chain not given here) [EPO mimetic 4. (N-End AcNYL, Loop RMGWV, Mid RP)]

Ki [1]: 34 nM
Binder: Ac-NYLRMLWVRP (peptide, part only; not given: Bridge, linker and tail moieties, not shown: small tags and cut ends, also: two linked chains, linker and second chain not given here) [EPO mimetic 8. (N-End AcNYL, Loop RMLWV, Mid RP)]

Ki [1]: 23 nM
Binder: Ac-NYLRM[hLeu]WVRP (peptide, part only; not given: Bridge, linker and tail moieties, not shown: small tags and cut ends, also: two linked chains, linker and second chain not given here) [EPO mimetic 9. (N-End AcNYL, Loop RMhomoLWV, Mid RP)]

IC50 [2]: 265 nM
Ki [2]: 126 nM
Ki (AC-0005-002)/Ki [2]: 31
B3: AC-0005-004 (peptide)
chain: LYACHMGPITAVCQP
modifications: not fully specified; cysteine pairing not given here
notes: Structure only as drawing CHEM-US-00006; also called compound 004

Ki [1]: 9.6 nM
Binder: [DesaminoY]LRMPWVKP (peptide, part only; not given: Bridge, linker and tail moieties, not shown: small tags and cut ends, also: two linked chains, linker and second chain not given here) [EPO mimetic 15. (N-End Desamino YL, Loop RMPWV, Mid KP)]

More lines, now with the values behind:

B1: AC-0005-003 (peptide)
chain: NYLCRMGPITWVCKP
modifications: not fully specified; cysteine pairing not given here
notes: Structure only as drawing CHEM-US-00005; also called compound 003; Control 2: AC-0005-003
IC50 [2]: 119 nM
Ki [2]: 56 nM
Ki (AC-0005-002)/Ki [2]: 69
IC50 [3]: 171 nM
Ki [3]: 81 nM
Ki (AC-0005-002)/Ki [3]: 48
IC50 [4]: 164 nM
Ki [4]: 78 nM
Ki (AC-0005-002)/Ki [4]: 0.041

B2: AC-0005-002 (peptide)
chain: GGLYACHMGPITAVCQPQGG
modifications: not fully specified; cysteine pairing not given here
notes: Structure only as drawing CHEM-US-00004; also called compound 002
IC50 [2]: 8170 nM
Ki [2]: 3870 nM
Ki (AC-0005-002)/Ki [2]: 1

Binder: Ac-NYLRM[βAla]WVKP (peptide, part only; not given: Bridge, linker and tail moieties, not shown: small tags and cut ends, also: two linked chains, linker and second chain not given here) [EPO mimetic 3. (N-End AcNYL, Loop RMβAWV, Mid KP)]
Ki [1]: 27 nM

Binder: Ac-NYLRMGWVKP (peptide, part only; not given: Bridge, linker and tail moieties, not shown: small tags and cut ends, also: two linked chains, linker and second chain not given here) [EPO mimetic 2. (N-End AcNYL, Loop RMGWV, Mid KP)]
Ki [1]: 22 nM

B4: AC-0005-001 (peptide)
chain: GGNYLCRMGPITWVCKPQGG
modifications: not fully specified; cysteine pairing not given here
notes: Structure only as drawing CHEM-US-00003; also called compound 001
IC50 [2]: 1300 nM
Ki [2]: 615 nM
Ki (AC-0005-002)/Ki [2]: 6.3

Binder: Ac-NYLRMFWVRP (peptide, part only; not given: Bridge, linker and tail moieties, not shown: small tags and cut ends, also: two linked chains, linker and second chain not given here) [EPO mimetic 6. (N-End AcNYL, Loop RMFWV, Mid RP)]
Ki [1]: 17 nM

Reference: patent US20170029481A1 (EPODOSE, published 2017)
